Measurements from paper PMC10870172, “Single-molecule FRET probes allosteric effects on protein-translocating pore loops of a AAA+ machine” (Biophysical Journal, 2024).
Values belong to the binder of their own block, whether it stands above or below them.

B6: Thermus thermophilus ClpB variant with truncated N-terminal domain, starting at residue 141 (Val) (domain or fragment)
chain: not shown
notes: ClpB, Thermus thermophilus, N-terminal domain truncated, starting at residue 141 (Val); numbering as in full-length TT ClpB; no cysteine replacement is printed; Theoretical MW of the hexamer 484.8 kDa (D1:p9); also called wt; dNClpB; source: E. coli, purified

Legend:
[1] = biological target: the molecule itself; experiment: native gel or EMSA; native PAGE (6% acrylamide) of 1:100 labeled:unlabeled ClpB samples after the refolding and mixing procedure; stained with Coomassie Blue, panel a also imaged with a Typhoon scanner at 532 nm; run at 4°C, 30 V, 2 mM ATP, 4 mM Mg2+
[2] = biological target: the molecule itself; experiment: native gel or EMSA; native gel (6% acrylamide), stained with Coomassie Blue; run at 4°C, 30 V, 2 mM ATP, 4 mM Mg2+; NativeMark Unstained Protein Standard
[3] = biological target: B6; experiment: native gel or EMSA; native PAGE (6% acrylamide) of 1:100 labeled:unlabeled ClpB samples after the refolding and mixing procedure; stained with Coomassie Blue, panel a also imaged with a Typhoon scanner at 532 nm; run at 4°C, 30 V, 2 mM ATP, 4 mM Mg2+; details: both partners purified
[4] = biological target: T1, PL1 BB: reassembled ClpB hexamer with one Alexa-labelled S236C-S359C E271A/E668A protomer among unlabelled … (Thermus thermophilus, UniProt Q9RA63 141-854; Q9RA63 141-854, S236C | S359C | E271A | E668A | E271A | E668A, Alexa Fluor 488 C5 maleimide and Alexa Fluor 594 C5 maleimide on the cysteines at 236 and 359); experiment: other fluorescence titration; single-molecule FRET on freely diffusing reassembled ClpB hexamers (1:100 labeled:unlabeled, ~50 pM labeled, ~5 nM total ClpB), increasing concentrations of unlabeled κ-casein; ratio of the H2MM-derived population of state 1 with and without casein fitted to a simple binding isotherm; 25 mM HEPES, 25 mM KCl, 10 mM MgCl2, 2 mM ATP, 0.01% Tween 20, pH 8, 22°C; details: both partners purified
T1 construct: ClpB, Thermus thermophilus, N-terminal domain truncated, starting at residue 141 (Val); numbering as in full-length TT ClpB; ClpB, Thermus thermophilus, N-terminal domain truncated, starting at residue 141 (Val), unlabelled cysteine-less; With the 1:100 ratio most hexamers hold no labelled protomer; only hexamers with one labelled protomer give the signal; also called PL1 double-Walker B …

[5] = biological target: T2, PL3 BB: reassembled ClpB hexamer with one Alexa-labelled S359C-Y646C E271A/E668A protomer among unlabelled … (Thermus thermophilus, UniProt Q9RA63 141-854; Q9RA63 141-854, S359C | Y646C | E271A | E668A | E271A | E668A, Alexa Fluor 488 C5 maleimide and Alexa Fluor 594 C5 maleimide on the cysteines at 359 and 646); experiment: as above; details: both partners purified
T2 construct: ClpB, Thermus thermophilus, N-terminal domain truncated, starting at residue 141 (Val); numbering as in full-length TT ClpB; ClpB, Thermus thermophilus, N-terminal domain truncated, starting at residue 141 (Val), unlabelled cysteine-less; With the 1:100 ratio most hexamers hold no labelled protomer; only hexamers with one labelled protomer give the signal; also called PL3 double-Walker B …

B1: ClpB (N-terminally truncated, from residue 141) K204T (domain or fragment, Thermus thermophilus, UniProt Q9RA63 141-854, looked up)
chain: VQTEHAESTYNALEQYGIDLTRLAAEGKLDPVIGRDEEIRRVIQILLRRTKNNPVLIGEPGVGTTAIVEGLAQRIVKGDVPEGLKGKRIVSLQMGSLLAGAKYRGEFEERLKAVIQEVVQSQGEVILFIDELHTVVGAGKAEGAVDAGNMLKPALARGELRLIGATTLDEYREIEKDPALERRFQPVYVDEPTVEETISILRGLKEKYEVHHGVRISDSAIIAAATLSHRYITERRLPDKAIDLIDEAAARLRMALESAPEEIDALERKKLQLEIEREALKKEKDPDSQERLKAIEAEIAKLTEEIAKLRAEWEREREILRKLREAQHRLDEVRREIELAERQYDLNRAAELRYGELPKLEAEVEALSEKLRGARFVRLEVTEEDIAEIVSRWTGIPVSKLLEGEREKLLRLEEELHKRVVGQDEAIRAVADAIRRARAGLKDPNRPIGSFLFLGPTGVGKTELAKTLAATLFDTEEAMIRIDMTEYMEKHAVSRLIGAPPGYVGYEEGGQLTEAVRRRPYSVILFDEIEKAHPDVFNILLQILDDGRLTDSHGRTVDFRNTVIILTSNLGSPLILEGLQKGWPYERIRDEVFKVLQQHFRPEFLNRLDEIVVFRPLTKEQIRQIVEIQLSYLRARLAEKRISLELTEAAKDFLAERGYDPVFGARPLRRVIQRELETPLAQKILAGEVKEGDRVQVDVGPAGLVFAVPARVEA
notes: ClpB, Thermus thermophilus, N-terminal domain truncated, starting at residue 141 (Val); numbering as in full-length TT ClpB; also called A1; Walker A1; source: E. coli, purified
binding result [1]: binds

B2: ClpB (N-terminally truncated, from residue 141) E271A (domain or fragment, Thermus thermophilus, UniProt Q9RA63 141-854, looked up)
chain: VQTEHAESTYNALEQYGIDLTRLAAEGKLDPVIGRDEEIRRVIQILLRRTKNNPVLIGEPGVGKTAIVEGLAQRIVKGDVPEGLKGKRIVSLQMGSLLAGAKYRGEFEERLKAVIQEVVQSQGEVILFIDALHTVVGAGKAEGAVDAGNMLKPALARGELRLIGATTLDEYREIEKDPALERRFQPVYVDEPTVEETISILRGLKEKYEVHHGVRISDSAIIAAATLSHRYITERRLPDKAIDLIDEAAARLRMALESAPEEIDALERKKLQLEIEREALKKEKDPDSQERLKAIEAEIAKLTEEIAKLRAEWEREREILRKLREAQHRLDEVRREIELAERQYDLNRAAELRYGELPKLEAEVEALSEKLRGARFVRLEVTEEDIAEIVSRWTGIPVSKLLEGEREKLLRLEEELHKRVVGQDEAIRAVADAIRRARAGLKDPNRPIGSFLFLGPTGVGKTELAKTLAATLFDTEEAMIRIDMTEYMEKHAVSRLIGAPPGYVGYEEGGQLTEAVRRRPYSVILFDEIEKAHPDVFNILLQILDDGRLTDSHGRTVDFRNTVIILTSNLGSPLILEGLQKGWPYERIRDEVFKVLQQHFRPEFLNRLDEIVVFRPLTKEQIRQIVEIQLSYLRARLAEKRISLELTEAAKDFLAERGYDPVFGARPLRRVIQRELETPLAQKILAGEVKEGDRVQVDVGPAGLVFAVPARVEA
notes: ClpB, Thermus thermophilus, N-terminal domain truncated, starting at residue 141 (Val); numbering as in full-length TT ClpB; also called B1; Walker B1; source: E. coli, purified
binding result [1]: binds

B3: ClpB (N-terminally truncated, from residue 141) double Walker B mutant E271A/E668A (domain or fragment, Thermus thermophilus, UniProt Q9RA63 141-854, looked up)
chain: VQTEHAESTYNALEQYGIDLTRLAAEGKLDPVIGRDEEIRRVIQILLRRTKNNPVLIGEPGVGKTAIVEGLAQRIVKGDVPEGLKGKRIVSLQMGSLLAGAKYRGEFEERLKAVIQEVVQSQGEVILFIDALHTVVGAGKAEGAVDAGNMLKPALARGELRLIGATTLDEYREIEKDPALERRFQPVYVDEPTVEETISILRGLKEKYEVHHGVRISDSAIIAAATLSHRYITERRLPDKAIDLIDEAAARLRMALESAPEEIDALERKKLQLEIEREALKKEKDPDSQERLKAIEAEIAKLTEEIAKLRAEWEREREILRKLREAQHRLDEVRREIELAERQYDLNRAAELRYGELPKLEAEVEALSEKLRGARFVRLEVTEEDIAEIVSRWTGIPVSKLLEGEREKLLRLEEELHKRVVGQDEAIRAVADAIRRARAGLKDPNRPIGSFLFLGPTGVGKTELAKTLAATLFDTEEAMIRIDMTEYMEKHAVSRLIGAPPGYVGYEEGGQLTEAVRRRPYSVILFDAIEKAHPDVFNILLQILDDGRLTDSHGRTVDFRNTVIILTSNLGSPLILEGLQKGWPYERIRDEVFKVLQQHFRPEFLNRLDEIVVFRPLTKEQIRQIVEIQLSYLRARLAEKRISLELTEAAKDFLAERGYDPVFGARPLRRVIQRELETPLAQKILAGEVKEGDRVQVDVGPAGLVFAVPARVEA
notes: ClpB, Thermus thermophilus, N-terminal domain truncated, starting at residue 141 (Val); numbering as in full-length TT ClpB; also called BB; source: E. coli, purified
stoichiometry N [2]: 6

B4: ClpB (N-terminally truncated, from residue 141) E668A (domain or fragment)
chain: not shown
notes: ClpB, Thermus thermophilus, N-terminal domain truncated, starting at residue 141 (Val); numbering as in full-length TT ClpB; also called B2; Walker B2; source: E. coli, purified
binding result [1]: binds

B5: ClpB (N-terminally truncated, from residue 141) K347A (domain or fragment)
chain: not shown
notes: ClpB, Thermus thermophilus, N-terminal domain truncated, starting at residue 141 (Val); numbering as in full-length TT ClpB; also called hyper; hyperactive mutant; source: E. coli, purified
binding result [1]: binds

Binder: B6
stoichiometry N [2]: 6

binding result [3]: binds
B7: ClpB (N-terminally truncated, from residue 141) S359C-Y646C, labelled with Alexa Fluor 488 and Alexa Fluor 594 (domain or fragment)
chain: not shown
modifications: Alexa Fluor 488 C5 maleimide and Alexa Fluor 594 C5 maleimide on the cysteines at 359 and 646
notes: ClpB, Thermus thermophilus, N-terminal domain truncated, starting at residue 141 (Val); numbering as in full-length TT ClpB; The labelled protomer alone, as mixed 1:100 with unlabelled ClpB (Dm4); also called PL3; PL3 construct S359C-Y646C; source: E. coli, purified, labelled

Kd [4]: 2000 nM
Kd [5]: 1600 nM
B8: κ-casein (natural protein)
chain: not shown
notes: κ-casein (Sigma Aldrich), unlabelled soluble model substrate protein; also called model substrate protein; source: bought: Sigma Aldrich
